Measurements reported in patent publication US20260234255A1 (Genmab, published 2026).

T1: human CD30 (human, UniProt P28908 19-595)
T1 construct: The same molecule is used for CD30 on HL/ALCL/NHL cell lines; also called huCD30; TNFRSF8
T1 sequence: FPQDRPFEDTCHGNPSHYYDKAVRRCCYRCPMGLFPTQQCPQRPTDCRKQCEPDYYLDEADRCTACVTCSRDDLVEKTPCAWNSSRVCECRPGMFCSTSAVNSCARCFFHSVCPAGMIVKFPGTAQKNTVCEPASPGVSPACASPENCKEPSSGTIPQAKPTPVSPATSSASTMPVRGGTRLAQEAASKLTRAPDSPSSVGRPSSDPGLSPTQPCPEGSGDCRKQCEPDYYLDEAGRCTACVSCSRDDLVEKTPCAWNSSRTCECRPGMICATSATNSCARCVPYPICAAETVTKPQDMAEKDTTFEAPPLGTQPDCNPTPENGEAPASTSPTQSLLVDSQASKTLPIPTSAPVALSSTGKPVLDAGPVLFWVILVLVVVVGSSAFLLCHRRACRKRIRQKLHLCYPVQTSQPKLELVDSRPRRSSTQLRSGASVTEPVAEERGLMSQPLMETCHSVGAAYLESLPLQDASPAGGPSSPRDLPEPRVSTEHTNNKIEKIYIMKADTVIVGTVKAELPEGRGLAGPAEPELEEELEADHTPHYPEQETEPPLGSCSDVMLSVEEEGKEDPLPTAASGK

T2: cynomolgus monkey (Macaca fascicularis) CD30 (cynomolgus monkey, UniProt P28908 19-595 (human entry))
T2 construct: also called mfCD30
T2 chain: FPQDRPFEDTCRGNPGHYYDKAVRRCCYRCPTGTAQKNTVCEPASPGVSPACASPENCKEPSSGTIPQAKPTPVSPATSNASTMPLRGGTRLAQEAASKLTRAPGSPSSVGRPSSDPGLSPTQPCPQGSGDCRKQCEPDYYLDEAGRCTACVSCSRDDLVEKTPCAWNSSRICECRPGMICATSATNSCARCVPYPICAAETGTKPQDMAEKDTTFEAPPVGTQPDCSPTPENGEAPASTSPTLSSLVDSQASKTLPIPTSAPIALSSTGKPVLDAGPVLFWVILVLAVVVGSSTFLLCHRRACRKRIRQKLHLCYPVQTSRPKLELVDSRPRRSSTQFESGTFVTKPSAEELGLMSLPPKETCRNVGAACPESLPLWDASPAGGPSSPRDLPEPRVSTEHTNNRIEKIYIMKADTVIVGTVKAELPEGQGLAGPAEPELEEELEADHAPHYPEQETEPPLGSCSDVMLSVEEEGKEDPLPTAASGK

B1: bsG1-b12-FEALxCD30-MDX060-FEAR (bispecific antibody, human IgG1, kappa)
heavy 1: QVQLVQSGAEVKKPGASVKVSCQASGYRFSNFVIHWVRQAPGQRFEWMGWINPYNGNKEFSAKFQDRVTFTADTSANTAYMELRSLRSADTAVYYCARVGPYSWDDSPQDNYYMDVWGKGTTVIVSSASTKGPSVFPLAPSSKSTSGGTAALGCLVKDYFPEPVTVSWNSGALTSGVHTFPAVLQSSGLYSLSSVVTVPSSSLGTQTYICNVNHKPSNTKVDKRVEPKSCDKTHTCPPCPAPEFEGGPSVFLFPPKPKDTLMISRTPEVTCVVVAVSHEDPEVKFNWYVDGVEVHNAKTKPREEQYNSTYRVVSVLTVLHQDWLNGKEYKCKVSNKALPAPIEKTISKAKGQPREPQVYTLPPSREEMTKNQVSLTCLVKGFYPSDIAVEWESNGQPENNYKTTPPVLDSDGSFLLYSKLTVDKSRWQQGNVFSCSVMHEALHNHYTQKSLSLSPG
light 1: EIVLTQSPGTLSLSPGERATFSCRSSHSIRSRRVAWYQHKPGQAPRLVIHGVSNRASGISDRFSGSGSGTDFTLTITRVEPEDFALYYCQVYGASSYTFGQGTKLERKRTVAAPSVFIFPPSDEQLKSGTASVVCLLNNFYPREAKVQWKVDNALQSGNSQESVTEQDSKDSTYSLSSTLTLSKADYEKHKVYACEVTHQGLSSPVTKSFNRGEC
heavy 2: QVQLQQWGAGLLKPSETLSLTCAVYGGSFSAYYWSWIRQPPGKGLEWIGDINHGGGTNYNPSLKSRVTISVDTSKNQFSLKLNSVTAADTAVYYCASLTAYWGQGSLVTVSSASTKGPSVFPLAPSSKSTSGGTAALGCLVKDYFPEPVTVSWNSGALTSGVHTFPAVLQSSGLYSLSSVVTVPSSSLGTQTYICNVNHKPSNTKVDKRVEPKSCDKTHTCPPCPAPEFEGGPSVFLFPPKPKDTLMISRTPEVTCVVVAVSHEDPEVKFNWYVDGVEVHNAKTKPREEQYNSTYRVVSVLTVLHQDWLNGKEYKCKVSNKALPAPIEKTISKAKGQPREPQVYTLPPSREEMTKNQVSLTCLVKGFYPSDIAVEWESNGQPENNYKTTPPVLDSDGSFFLYSRLTVDKSRWQQGNVFSCSVMHEALHNHYTQKSLSLSPG
light 2: DIQMTQSPTSLSASVGDRVTITCRASQGISSWLTWYQQKPEKAPKSLIYAASSLQSGVPSRFSGSGSGTDFTLTISSLQPEDFATYYCQQYDSYPITFGQGTRLEIKRTVAAPSVFIFPPSDEQLKSGTASVVCLLNNFYPREAKVQWKVDNALQSGNSQESVTEQDSKDSTYSLSSTLTLSKADYEKHKVYACEVTHQGLSSPVTKSFNRGEC
notes: Monovalent CD30 control
B2: bsG1-huCD3-FEALxb12-FEAR (bispecific antibody)
heavy 1: not shown
light 1: not shown
heavy 2: QVQLVQSGAEVKKPGASVKVSCQASGYRFSNFVIHWVRQAPGQRFEWMGWINPYNGNKEFSAKFQDRVTFTADTSANTAYMELRSLRSADTAVYYCARVGPYSWDDSPQDNYYMDVWGKGTTVIVSSASTKGPSVFPLAPSSKSTSGGTAALGCLVKDYFPEPVTVSWNSGALTSGVHTFPAVLQSSGLYSLSSVVTVPSSSLGTQTYICNVNHKPSNTKVDKRVEPKSCDKTHTCPPCPAPEFEGGPSVFLFPPKPKDTLMISRTPEVTCVVVAVSHEDPEVKFNWYVDGVEVHNAKTKPREEQYNSTYRVVSVLTVLHQDWLNGKEYKCKVSNKALPAPIEKTISKAKGQPREPQVYTLPPSREEMTKNQVSLTCLVKGFYPSDIAVEWESNGQPENNYKTTPPVLDSDGSFFLYSRLTVDKSRWQQGNVFSCSVMHEALHNHYTQKSLSLSPG
light 2: EIVLTQSPGTLSLSPGERATFSCRSSHSIRSRRVAWYQHKPGQAPRLVIHGVSNRASGISDRFSGSGSGTDFTLTITRVEPEDFALYYCQVYGASSYTFGQGTKLERKRTVAAPSVFIFPPSDEQLKSGTASVVCLLNNFYPREAKVQWKVDNALQSGNSQESVTEQDSKDSTYSLSSTLTLSKADYEKHKVYACEVTHQGLSSPVTKSFNRGEC
notes: Monovalent CD3 control; The b12 arm is HIV-1 gp120 specific

Columns and labels:
[1] = target: T1, human CD30; experiment: flow cytometry, DEL cells
[2] = target: T1, human CD30; experiment: flow cytometry, HDLM-2 cells
Protocol: (§1) Binding of CD3×CD30 bispecific antibodies to two CD30-expressing human tumor cell lines SU-DHL-1 (ALCL; ATCC, cat. no. ACC 356) and HDLM-2 (HL; ATCC, cat. no. CRL-2965) was analyzed […] by flow cytometry.
(§2) Cells (3×10⁴ cells/well) were incubated in polystyrene 96-well round-bottom plates (Greiner bio-one, cat. no. 650180) with serial dilutions of antibodies (range 0.0046 to 10 μg/mL in 3-fold dilution steps) in 50 μL staining buffer at 4° C. for 30 min. After washing twice in staining buffer, cells were incubated with 50 μL secondary antibody at 4° C. for 30 min. […] Next, cells were washed twice in staining buffer, resuspended in 100 μL staining buffer supplemented with TO-PRO-3 iodide (Thermo Fisher Scientific; cat. no. T3605; 1:8000 dilution) and analyzed on a FACSCelesta flow cytometer (BD Biosciences, USA). Live cells were gated based on FSC/SSC and absence of TOPRO-3 staining. Binding curves were analyzed by non-linear regression of log-transformed data (sigmoidal dose-response with variable slope, four parameters) using GraphPad Prism V7.02 software (GraphPad Software, San Diego, CA, USA).

[3] = target: T2, cynomolgus monkey (Macaca fascicularis) …; experiment: flow cytometry, Expi293F cells transfected with cynomolgus monkey CD30 (mfCD30)
Protocol: Cells (3×10⁴ cells/well) were incubated in polystyrene 96-well round-bottom plates (Greiner bio-one, cat. no. 650180) with serial dilutions of antibodies (ranging from 0.005 to 10 μg/mL in 3-fold dilution steps) in 100 μL staining buffer at 4° C. for 30 min. Experiments were performed in technical duplicate. After washing twice in staining buffer, cells were incubated in 50 μL secondary antibody at 4° C. for 30 min. As a secondary antibody, R-PE-conjugated goat-anti-human IgG (Jackson ImmunoResearch, UK; cat. no. 109⁻¹¹⁶-098) diluted 1:400 in staining buffer was used. Cells were washed twice in staining buffer, resuspended in 30 μL staining buffer containing 0.4% EDTA and analyzed on an iQue Screener (Intellicyt Corporation, USA). Binding curves were analyzed using non-linear regression (sigmoidal dose-response with variable slope) using GraphPad Prism V9.0.0 software (GraphPad Software, San Diego, CA, USA).

[4] = target: T1, human CD30; experiment: flow cytometry, SU-DHL-1 cells
Protocol: as §1, §2

[5] = target: T1, human CD30; experiment: flow cytometry, HDLM-2 cells
[6] = target: T1, human CD30; experiment: flow cytometry, KI-JK cells
[7] = target: T3, cynomolgus monkey CD3 (cynomolgus monkey, UniProt Q95LI5 22-198); experiment: flow cytometry, cynomolgus monkey T cells (PBMCs)
T3 construct: CD3 endogenously expressed on T cells within cynomolgus monkey PBMCs
Protocol: Cynomolgus monkey PBMCs (Tebu-Bio, The Netherlands; cat. no. PBMCMFA-10) or purified human T cells were plated in polystyrene 96-well round-bottom plates. T cells were derived from human donor buffy coats (Sanquin, Amsterdam, The Netherlands) and isolated using the RosetteSep human T cell enrichment cocktail (Stemcell Technologies, France, cat. no. 15061) according to manufacturer's instructions. […] After washing twice in staining buffer, cells were incubated in 50 μL secondary R-PE-conjugated goat-anti-human IgG antibody at 4° C. for 30 min (1:400 dilution). After washing twice in staining buffer, T cells were stained for T-cell markers CD3 (1:100; Miltenyi biotec, clone 10D12, conjugated to APC), CD4 (1:50; eBioscience, clone OKT4, conjugated to APC-Cy7), CD8 (1:100; Biolegend, clone RPA-T8, conjugated to AF700) and T-cell activation markers CD69 (1:50; BD Biosciences, clone AB2439, conjugated to FITC), CD25 (1:50; eBioscience, clone BC96, conjugated to PE-Cy7) and CD279/PD1 (1:50; BD Biosciences, clone AEH12.2H7, conjugated to BV605). Single stained samples with Ultracomp beads (5 μL; Invitrogen, cat. no. 01-2222-42) were used for compensation adjustments of the flow cytometer. After 30 min of incubation at 4° C., cells were washed twice with staining buffer, resuspended in 100 μL staining buffer and analyzed using a FACS Fortessa (BD Biosciences). Data were processed using FlowJo (BD Biosciences).

T3 sequence (Q95LI5 22-198): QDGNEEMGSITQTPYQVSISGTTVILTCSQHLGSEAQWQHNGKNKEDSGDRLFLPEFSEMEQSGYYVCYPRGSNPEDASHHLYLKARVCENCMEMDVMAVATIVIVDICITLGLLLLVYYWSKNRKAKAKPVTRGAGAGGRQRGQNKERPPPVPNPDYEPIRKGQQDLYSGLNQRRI

| Binder | EC50 (read off the curve) [1] | EC50 (read off the curve) [2] | binding result [3] | EC50 (read off the curve) [4] | EC50 (read off the curve) [5] | EC50 (read off the curve) [6] | EC50 (read off the curve) [7] |
| --- | --- | --- | --- | --- | --- | --- | --- |
| B1 | ~0.2 µg/mL | ~0.3 µg/mL | binds | ~0.4 µg/mL | ~0.1 µg/mL | ~0.2 µg/mL | – |
| B2 | – | – | – | – | – | – | ~0.5 µg/mL |
